Results from patent US20240293588A1, “THERAPEUTIC CONJUGATES” (Starpharma Pty Ltd, priority 2020, published 2024).
Values belong to the molecule of their own block, whether it stands above or below them.

Legend:
[1] = test system: MDA-MB-231/HER2 (HER2 knock in) cells; test: In vitro association study (flow cytometry), MDA-MB-231/HER2; type: cell-based, human; conditions: MDA-MB-231/HER2, 3.33 nM, over 24 h, mean±SD
[2] = test system: HER2-positive MDA-MB-453 cells; test: Binding of 2D3-dendrimer conjugates to MDA-MB-453 cells (Cy5 MFI); type: cell-based, human; conditions: for MFI (mean fluorescence intensity, Cy5): MDA-MB-453 cells incubated with dendrimers, triplicate wells, mean with standard deviation; for binding to MDA-MB-453 cells: flow cytometry, result in words
ErbB2-ECD [3] = target: T1, ErbB2-ECD (Homo sapiens, UniProt P04626); test: SPR, ErbB2-ECD amine-coupled on chip, analyte injected, 25 °C, 1:1 Langmuir fit
ErbB2-ECD [4] = target: T1, ErbB2-ECD; test: SPR, ErbB2-ECD amine-coupled on chip, analyte injected, 25 °C, 1:1 Langmuir fit; affibody dimeric
[5] = target: T2, HER2 (human epidermal growth factor receptor 2) on cells (human, UniProt P04626 23-1255); test: flow cytometry (Cy5), BT-474 cells, 1 h, conjugate at 3 mM (so in the source)
T2 construct: whole, on cells; also called ERBB2; HER2 receptor

[6] = target: T2, HER2 (human epidermal growth factor …); test: flow cytometry (Cy5), BT-474 cells, 1 h, conjugate at 12 mM (so in the source)
[7] = target: T2, HER2 (human epidermal growth factor …); test: flow cytometry (Cy5), BT-474 cells, 1 h, conjugate at 6 mM (so in the source)
[8] = target: T2, HER2 (human epidermal growth factor …); test: flow cytometry (Cy5), BT-474 cells, 1 h, conjugate at 25 mM (so in the source)
[9] = target: T2, HER2 (human epidermal growth factor …); test: flow cytometry (Cy5), MDA-MB-231 parental cells (HER2 lo, control), 0.5 h
[10] = target: T2, HER2 (human epidermal growth factor …); test: flow cytometry (Cy5), MDA-MB-231/HER2 cells, 0.5 h

Molecule: (MeTzPh)PEG4CO-NHPEG24CO—[N(PN)2][Lys]2[Lys]4[Lys]8[Lys]16[((α-NHCy5)1(α-NHAc)15)(ε-NH-COPEG1100)16], G4 [Compound 53]
percent of cellular association [1]: significantly lower association
MFI (mean fluorescence intensity, Cy5) [2]: 6.827 ± 0.07
binding to MDA-MB-453 cells [2]: did not bind

Kd (ErbB2-ECD [3]): 50 nM
koff (ErbB2-ECD [3]): 0.0013 s⁻¹
kon (ErbB2-ECD [3]): 25000 M⁻¹ s⁻¹
Molecule: Affibody-BCN/N3-PEG24CO-[N(PN)2][Lys]2[Lys]4[Lys]8[(α-NHGlu-vc-PAB-MMAE)8(ε-NH-COPEG1100)8], G3, Compound 77 (designed binder)

Kd (ErbB2-ECD [3]): 36 nM
koff (ErbB2-ECD [3]): 0.00114 s⁻¹
kon (ErbB2-ECD [3]): 32000 M⁻¹ s⁻¹
Molecule: Affibody-BCN/N3-PEG24CO-[N(PN)2][Lys]2[Lys]4[Lys]8[(α-NHGlu-vc-PAB-MMAE)8(ε-NH-COPEG2000)8], G3, Compound 78 (designed binder)

Molecule: (MeTzPh)PEG4CO-NHPEG24CO—[N(PN)2][Lys]2[Lys]4[Lys]8[((α-NHCy5)1(α-NHAc)7)(ε-NH-COPEG1100)8], G3 [Compound 52]
percent of cellular association [1]: significantly lower association
MFI (mean fluorescence intensity, Cy5) [2]: 3.097 ± 0.01
binding to MDA-MB-453 cells [2]: did not bind

Molecule: (MeTzPh)PEG4CO-NHPEG24CO—[N(PN)2][Lys]2[Lys]4[Lys]8[Lys]16[Lys]32[((α-NHCy5)1(α-NHAc)31)(ε-NH-COPEG1100)32], G5 [Compound 54]
percent of cellular association [1]: significantly lower association
MFI (mean fluorescence intensity, Cy5) [2]: 4.349 ± 0.08
binding to MDA-MB-453 cells [2]: did not bind

Kd (ErbB2-ECD [4]): 0.266 nM
koff (ErbB2-ECD [4]): 0.00051 s⁻¹
kon (ErbB2-ECD [4]): 1.9e+06 M⁻¹ s⁻¹
Molecule: Affibody protein (HER2, Affibody AB) (designed binder)

MFI [5]: 915
MFI [6]: 2270
MFI [7]: 1460
MFI [8]: 2150
B1: [[(ε-NHCO-PEG1100)8(α-NHDOTA)4.75(α-NHCy5)0.5(α-NH2)2.75][Lys]8[Lys]4[Lys]2[Lys]-CONH-CH2-CH2-S-]2MAL-PEG3-NHCO-PEG24-CONH-PEG4-(PhTzMe)/TCO-NHCO-PEG24-(MAL)Me/ … (VHH)
VHH: EVQLVESGGSLVQPGGSLRLSCAASGFTFDDYAMSWVRQVPGKGLEWVSSINWSGTHTDYADSVKGRFTISRNNANNTLYLQMNSLKSEDTAVYYCAKNWRDAGTTWFEKSGSAGQGTQVTVSS
modifications: the additional cysteine (in …) coupled to the methylmaleimide of linker SRS-12 (intermediate SRS-14), whose TCO is joined to the tetrazine of dendrimer SRS-4-Mal (maleimide core, Cy5, DOTA, PEG1100)

percent of cellular association [9]: 25.1%
percent of cellular association [10]: 218%
B2: BHALys[Lys]2[Lys]4[Lys]8[((α-NH-COPEG24NH-COPEG4(PhMeTz)/TCO-PEG3NH-COPEG24NH-Glu-DBCO/N3-Nanobody)1(α-Lys(α-NHCy5)(ε-NHDFO))1(α-NH2)6)(ε-NH-COPEG1000)8], G3, … (VHH)
VHH: EVQLVESGGSLVQPGGSLRLSCAASGFTFDDYAMSWVRQVPGKGLEWVSSINWSGTHTDYADSVKGRFTISRNNANNTLYLQMNSLKSEDTAVYYCAKNWRDAGTTWFEKSGSAGQGTQVTVSS
modifications: # (unnatural amino acid, p-azido-phenylalanine, after ...QVTVSS) clicked to the DBCO of linker Compound 51, whose TCO is joined to the tetrazine on the surface of the G3 lysine dendrimer Compound 27 (Cy5, DFO, 8 PEG1000)
notes: also called BHA-G3-PEG1000 + NB

MFI [5]: 716
MFI [6]: 1370
MFI [7]: 732
MFI [8]: 1450
B3: [(ε-NHCO-PEG1100)16(α-NHCy5)1(α-NHDOTA)8(α-NH2)7][Lys]16[Lys]8[Lys]4[Lys]2[Lys]-CONH-CH2-CH2-S-(Me)MAL-PEG24-CONH-Bn-Tz(Me)/TCO-NHCO-PEG24-(MAL)Me/Cys-Nanobody … (VHH)
VHH: EVQLVESGGSLVQPGGSLRLSCAASGFTFDDYAMSWVRQVPGKGLEWVSSINWSGTHTDYADSVKGRFTISRNNANNTLYLQMNSLKSEDTAVYYCAKNWRDAGTTWFEKSGSAGQGTQVTVSS
modifications: the additional cysteine (in …) coupled to the methylmaleimide of linker SRS-12 (intermediate SRS-14), whose TCO is joined to the tetrazine of dendron RP-5 (1 Cy5, 8 DOTA, 16 PEG1100)

percent of cellular association [9]: 30.8%
percent of cellular association [10]: 190%
B4: BHALys[Lys]2[Lys]4[((α-NH-COPEG24NH-COPEG4(PhMeTz)/TCO-PEG3NH-COPEG24NH-Glu-DBCO/N3-Nanobody)1(α-Lys(α-NHCy5)(ε-NHDFO))1(α-NH2)2)(ε-NH-COPEG1000)4], G2, … (VHH)
VHH: EVQLVESGGSLVQPGGSLRLSCAASGFTFDDYAMSWVRQVPGKGLEWVSSINWSGTHTDYADSVKGRFTISRNNANNTLYLQMNSLKSEDTAVYYCAKNWRDAGTTWFEKSGSAGQGTQVTVSS
modifications: # (unnatural amino acid, p-azido-phenylalanine, after ...QVTVSS) clicked to the DBCO of linker Compound 51, whose TCO is joined to the tetrazine on the surface of the G2 lysine dendrimer Compound 25 (Cy5, DFO, 4 PEG1000)
notes: also called BHA-G2-PEG1000 + NB

percent of cellular association [9]: 17.5%
percent of cellular association [10]: 165%
B5: BHA[Lys]2[Lys]4[Lys]8[Lys]16[Lys]32[((α-NH-COPEG24NH-COPEG4(PhMeTz)/TCO-PEG3NH-COPEG24NH-Glu-DBCO/N3-Nanobody)1(α-Lys(α-NHCy5)(ε-NHDFO))1(α-NH2)30(ε-NH-COPEG100 … (VHH)
VHH: EVQLVESGGSLVQPGGSLRLSCAASGFTFDDYAMSWVRQVPGKGLEWVSSINWSGTHTDYADSVKGRFTISRNNANNTLYLQMNSLKSEDTAVYYCAKNWRDAGTTWFEKSGSAGQGTQVTVSS
modifications: # (unnatural amino acid, p-azido-phenylalanine, after ...QVTVSS) clicked to the DBCO of linker Compound 51, whose TCO is joined to the tetrazine on the surface of the G5 lysine dendrimer Compound 29 (Cy5, DFO, 32 PEG1000)
notes: also called BHA-G5-PEG1000 + NB

MFI [5]: 1020
MFI [6]: 2270
MFI [7]: 1530
MFI [8]: 2550
B6: [(ε-NHCO-PEG1100)16(α-DOTA)7(α-NHCy5)1(α-NH2)8][Lys]16[Lys]8[Lys]4[Lys]2[Lys]-(PN)NCO-PEG24-CONH-PEG4-(PhTzMe)/TCO-NHCO-PEG24-(MAL)Me/Cys-Nanobody SRS-17 (VHH)
VHH: EVQLVESGGSLVQPGGSLRLSCAASGFTFDDYAMSWVRQVPGKGLEWVSSINWSGTHTDYADSVKGRFTISRNNANNTLYLQMNSLKSEDTAVYYCAKNWRDAGTTWFEKSGSAGQGTQVTVSS
modifications: the additional cysteine (in …) coupled to the methylmaleimide of linker SRS-12 (intermediate SRS-14), whose TCO is joined to the tetrazine of dendrimer HH-2 (1 Cy5, 7 DOTA, 16 PEG1100)

percent of cellular association [9]: 20%
percent of cellular association [10]: 157%
B7: BHA[Lys]2[Lys]4[Lys]8[Lys]16[((α-NH-COPEG24NH-COPEG4(PhMeTz)/TCO-PEG3NH-COPEG24NH-Glu-DBCO/N3-Nanobody)1(α-Lys(α-NHCy5)(ε-NHDFO))1(α-NH2)14(ε-NH-COPEG1000)16], … (VHH)
VHH: EVQLVESGGSLVQPGGSLRLSCAASGFTFDDYAMSWVRQVPGKGLEWVSSINWSGTHTDYADSVKGRFTISRNNANNTLYLQMNSLKSEDTAVYYCAKNWRDAGTTWFEKSGSAGQGTQVTVSS
modifications: # (unnatural amino acid, p-azido-phenylalanine, after ...QVTVSS) clicked to the DBCO of linker Compound 51, whose TCO is joined to the tetrazine on the surface of the G4 lysine dendrimer Compound 28 (Cy5, DFO, 16 PEG1000)
notes: One nanobody on each dendrimer; also called single 2D3-dendrimer conjugate; BHA-G4-PEG1000 + NB

MFI [5]: 2640
MFI [6]: 6550
MFI [7]: 4910
MFI [8]: 6490
B8: [(ε-NHCO-PEG1100)16(α-DOTA)7(α-NHCy5)1(α-NH2)8][Lys]16[Lys]8[Lys]4[Lys]2[Lys]-(PN)NCO-PEG24-CONH-PEG4-(PhTzMe)/TCO-PEG3-NHCO-PEG24-Glu-DBCO/N3-Nanobody SRS-22 (VHH)
VHH: EVQLVESGGSLVQPGGSLRLSCAASGFTFDDYAMSWVRQVPGKGLEWVSSINWSGTHTDYADSVKGRFTISRNNANNTLYLQMNSLKSEDTAVYYCAKNWRDAGTTWFEKSGSAGQGTQVTVSS
modifications: # (unnatural amino acid, p-azido-phenylalanine, after ...QVTVSS) clicked to the DBCO of SRS-22a (linker Compound 51 on dendrimer HH-2: 1 Cy5, 7 DOTA, 16 PEG1100)

MFI [5]: 3100
MFI [6]: 5260
MFI [7]: 4640
MFI [8]: 4760
B9: BHALys[Lys]2[Lys]4[Lys]8[Lys]16[((α-NH-COPEG24NH-COPEG4(PhTzMe)/TCO-PEG3-NHCO-PEG24-(MAL)Me/Cys-Nanobody)1(α-NHCy5)1(α-NHDOTA))10(α-NH2)4)(ε-NH-COPEG1000)16] … (VHH)
VHH: EVQLVESGGSLVQPGGSLRLSCAASGFTFDDYAMSWVRQVPGKGLEWVSSINWSGTHTDYADSVKGRFTISRNNANNTLYLQMNSLKSEDTAVYYCAKNWRDAGTTWFEKSGSAGQGTQVTVSS
modifications: the additional cysteine (in …) coupled to the methylmaleimide of SRS-21a (linker SRS-12 on G4 dendrimer SRS-1: 1 Cy5, 10 DOTA, 16 PEG1000)

MFI [5]: 1500
MFI [6]: 3140
MFI [7]: 2170
MFI [8]: 3400
B10: [[(ε-NHCO-PEG1100)8(α-NHDOTA)4.75(α-NHCy5)0.5(α-NH2)2.75][Lys]8[Lys]4[Lys]2[Lys]-CONH-CH2-CH2-S-]2MAL-PEG3-NHCO-PEG24-CONH-PEG4-(PhTzMe)/TCO-PEG3-NHCO-PEG24-Glu … (VHH)
VHH: EVQLVESGGSLVQPGGSLRLSCAASGFTFDDYAMSWVRQVPGKGLEWVSSINWSGTHTDYADSVKGRFTISRNNANNTLYLQMNSLKSEDTAVYYCAKNWRDAGTTWFEKSGSAGQGTQVTVSS
modifications: # (unnatural amino acid, p-azido-phenylalanine, after ...QVTVSS) clicked to the DBCO of SRS-20a (linker Compound 51 on dendrimer SRS-4-Mal: maleimide core, Cy5, DOTA, PEG1100)
